This passage reports EC50 results from publication PMC8294587, “Intrinsic differences in the mechanisms of Tie2 binding to angiopoietins exploited by directed evolution to create an Ang2-selective ligand trap” (The Journal of Biological Chemistry, 2021).

One may read the EC50 as the concentration needed to bring the measured effect to its halfway point.

For test [1], the target named is T1, Angiopoietin-2 (UniProt O15123 19-496).
T1 construct: recombinant Ang2; the residue numbers printed for Ang2 (Asp448, Phe469, Ser480) come from the cited structure 2GY7; also called Ang2; source: recombinant
T1 sequence (looked up): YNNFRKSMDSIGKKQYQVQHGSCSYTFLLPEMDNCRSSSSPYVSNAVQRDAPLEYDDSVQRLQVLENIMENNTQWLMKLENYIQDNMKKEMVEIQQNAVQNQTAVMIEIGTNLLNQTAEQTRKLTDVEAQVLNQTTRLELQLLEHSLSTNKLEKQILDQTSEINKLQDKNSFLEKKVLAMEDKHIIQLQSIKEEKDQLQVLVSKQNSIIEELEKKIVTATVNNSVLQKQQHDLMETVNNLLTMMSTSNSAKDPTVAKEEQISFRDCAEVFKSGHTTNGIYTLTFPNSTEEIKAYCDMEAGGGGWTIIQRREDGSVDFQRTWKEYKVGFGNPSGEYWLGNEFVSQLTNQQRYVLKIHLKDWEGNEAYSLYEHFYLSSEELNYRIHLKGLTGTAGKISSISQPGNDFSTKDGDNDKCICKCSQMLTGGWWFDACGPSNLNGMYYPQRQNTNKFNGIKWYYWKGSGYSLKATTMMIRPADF
The test is described as follows: ELISA; recombinant Ang1 or Ang2 immobilised on Maxisorp plates, blocked with TBS, 0.1% Triton-X100, 5% milk powder; Tie2 ectodomain proteins bound for 1 h; detected with anti-Tie2 ectodomain antibodies; EC50 = concentration of ectodomain for 50% of maximal binding. The conditions noted are these: both partners purified.

Test [2] has as its target T2, Angiopoietin-1 (UniProt Q15389 16-498).
T2 construct: recombinant Ang1; the residue numbers printed for Ang1 (Gln415, Asp450, Leu471, Tyr478) come from the cited structure 4K0V; also called Ang1; source: recombinant
T2 sequence (looked up): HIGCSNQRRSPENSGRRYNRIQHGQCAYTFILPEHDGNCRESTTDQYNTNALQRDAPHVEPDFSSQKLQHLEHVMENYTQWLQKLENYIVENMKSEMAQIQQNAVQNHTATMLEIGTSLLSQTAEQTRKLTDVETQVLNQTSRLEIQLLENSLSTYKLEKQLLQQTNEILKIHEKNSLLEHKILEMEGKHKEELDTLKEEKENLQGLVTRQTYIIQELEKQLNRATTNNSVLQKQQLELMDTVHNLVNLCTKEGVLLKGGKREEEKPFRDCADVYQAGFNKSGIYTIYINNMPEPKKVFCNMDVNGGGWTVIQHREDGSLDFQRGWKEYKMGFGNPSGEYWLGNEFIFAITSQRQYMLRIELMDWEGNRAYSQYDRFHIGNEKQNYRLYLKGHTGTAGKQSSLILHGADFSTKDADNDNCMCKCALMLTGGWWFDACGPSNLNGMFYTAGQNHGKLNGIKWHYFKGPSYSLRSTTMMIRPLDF
The description is as above. The conditions noted are these: both partners purified.

B1: wild-type Tie2 ectodomain-Fc (Fc fusion, human, UniProt Q02763 23-442, looked up)
chain: AMDLILINSLPLVSDAETSLTCIASGWRPHEPITIGRDFEALMNQHQDPLEVTQDVTREWAKKVVWKREKASKINGAYFCEGRVRGEAIRIRTMKMRQQASFLPATLTMTVDKGDNVNISFKKVLIKEEDAVIYKNGSFIHSVPRHEVPDILEVHLPHAQPQDAGVYSARYIGGNLFTSAFTRLIVRRCEAQKWGPECNHLCTACMNNGVCHEDTGECICPPGFMGRTCEKACELHTFGRTCKERCSGQEGCKSYVFCLPDPYGCSCATGWKGLQCNEACHPGFYGPDCKLRCSCNNGEMCDRFQGCLCSPGWQGLQCEREGIQRMTPKIVDLPDHIEVNSGKFNPICKASGWPLPTNEEMTLVKPDGTVLHPKDFNHTDHFSVAIFTIHRILPPDSGVWVCSVNTVAGMVEKPFNISVK
notes: signal peptide in the construct; Tie2 ectodomain, human, residues 1-442; Order on the chain: Tie2 1-442, GS4 linker, human Fc fragment, His6; also called Wt; Wt-Tie2; source: Hek293, transfected, purified from culture medium (nickel chromatography); not shown: Fc (fragment of human Fc immunoglobulin domain, after a GS4 linker), C-terminal, kept
Take B1: the EC50 was 1.37 nM in test [1] and 0.66 nM in test [2].

B2: Tie2 ectodomain-Fc H168A (Fc fusion, human, UniProt Q02763 23-442, looked up)
chain: AMDLILINSLPLVSDAETSLTCIASGWRPHEPITIGRDFEALMNQHQDPLEVTQDVTREWAKKVVWKREKASKINGAYFCEGRVRGEAIRIRTMKMRQQASFLPATLTMTVDKGDNVNISFKKVLIKEEDAVIYKNGSFIHSVPRAEVPDILEVHLPHAQPQDAGVYSARYIGGNLFTSAFTRLIVRRCEAQKWGPECNHLCTACMNNGVCHEDTGECICPPGFMGRTCEKACELHTFGRTCKERCSGQEGCKSYVFCLPDPYGCSCATGWKGLQCNEACHPGFYGPDCKLRCSCNNGEMCDRFQGCLCSPGWQGLQCEREGIQRMTPKIVDLPDHIEVNSGKFNPICKASGWPLPTNEEMTLVKPDGTVLHPKDFNHTDHFSVAIFTIHRILPPDSGVWVCSVNTVAGMVEKPFNISVK
notes: signal peptide in the construct; Tie2 ectodomain, human, residues 1-442; also called Tie2(H168A); His168Ala; source: Hek293, transfected, purified from culture medium (nickel chromatography); not shown: Fc (fragment of human Fc immunoglobulin domain, after a GS4 linker), C-terminal, kept
As for B2, the EC50 in test [1] was determined as 0.5 nM; in test [2] it was 26.4 nM.

B3: Tie2 ectodomain-Fc H163A (Fc fusion, human, UniProt Q02763 23-442, looked up)
chain: AMDLILINSLPLVSDAETSLTCIASGWRPHEPITIGRDFEALMNQHQDPLEVTQDVTREWAKKVVWKREKASKINGAYFCEGRVRGEAIRIRTMKMRQQASFLPATLTMTVDKGDNVNISFKKVLIKEEDAVIYKNGSFIASVPRHEVPDILEVHLPHAQPQDAGVYSARYIGGNLFTSAFTRLIVRRCEAQKWGPECNHLCTACMNNGVCHEDTGECICPPGFMGRTCEKACELHTFGRTCKERCSGQEGCKSYVFCLPDPYGCSCATGWKGLQCNEACHPGFYGPDCKLRCSCNNGEMCDRFQGCLCSPGWQGLQCEREGIQRMTPKIVDLPDHIEVNSGKFNPICKASGWPLPTNEEMTLVKPDGTVLHPKDFNHTDHFSVAIFTIHRILPPDSGVWVCSVNTVAGMVEKPFNISVK
notes: signal peptide in the construct; Tie2 ectodomain, human, residues 1-442; source: Hek293, transfected, purified from culture medium (nickel chromatography); not shown: Fc (fragment of human Fc immunoglobulin domain, after a GS4 linker), C-terminal, kept
Take B3: the EC50 in test [1] was found to be 5.88 nM; in test [2] it was 1.38 nM.

B4: Tie2 ectodomain-Fc S164A (Fc fusion, human, UniProt Q02763 23-442, looked up)
chain: AMDLILINSLPLVSDAETSLTCIASGWRPHEPITIGRDFEALMNQHQDPLEVTQDVTREWAKKVVWKREKASKINGAYFCEGRVRGEAIRIRTMKMRQQASFLPATLTMTVDKGDNVNISFKKVLIKEEDAVIYKNGSFIHAVPRHEVPDILEVHLPHAQPQDAGVYSARYIGGNLFTSAFTRLIVRRCEAQKWGPECNHLCTACMNNGVCHEDTGECICPPGFMGRTCEKACELHTFGRTCKERCSGQEGCKSYVFCLPDPYGCSCATGWKGLQCNEACHPGFYGPDCKLRCSCNNGEMCDRFQGCLCSPGWQGLQCEREGIQRMTPKIVDLPDHIEVNSGKFNPICKASGWPLPTNEEMTLVKPDGTVLHPKDFNHTDHFSVAIFTIHRILPPDSGVWVCSVNTVAGMVEKPFNISVK
notes: as for B3
As for B4, the values for the EC50 in test [1] and in test [2] were 14.4 nM and 0.44 nM, respectively.

B5: Tie2 ectodomain-Fc R167A (Fc fusion, human, UniProt Q02763 23-442, looked up)
chain: AMDLILINSLPLVSDAETSLTCIASGWRPHEPITIGRDFEALMNQHQDPLEVTQDVTREWAKKVVWKREKASKINGAYFCEGRVRGEAIRIRTMKMRQQASFLPATLTMTVDKGDNVNISFKKVLIKEEDAVIYKNGSFIHSVPAHEVPDILEVHLPHAQPQDAGVYSARYIGGNLFTSAFTRLIVRRCEAQKWGPECNHLCTACMNNGVCHEDTGECICPPGFMGRTCEKACELHTFGRTCKERCSGQEGCKSYVFCLPDPYGCSCATGWKGLQCNEACHPGFYGPDCKLRCSCNNGEMCDRFQGCLCSPGWQGLQCEREGIQRMTPKIVDLPDHIEVNSGKFNPICKASGWPLPTNEEMTLVKPDGTVLHPKDFNHTDHFSVAIFTIHRILPPDSGVWVCSVNTVAGMVEKPFNISVK
notes: signal peptide in the construct; Tie2 ectodomain, human, residues 1-442; also called Arg167Ala; source: Hek293, transfected, purified from culture medium (nickel chromatography); not shown: Fc (fragment of human Fc immunoglobulin domain, after a GS4 linker), C-terminal, kept
Take B5: the EC50 in test [1] was determined as 10.3 nM; in test [2], 26.6 nM.
